± gives the standard deviation of the averaged measurements.
B1: library; a variant is named by its letters at N, in order (parent)
chain: GCUGUCACCGGUGCUUGGUACGUUAUAUUCAGCCGGUCUGAUGAGUCUNNNNNNAGACGAAACAGC

Legend:
(6R,S)-folinic acid [1] = variants of: B1; assay: FACS-Seq fitted mean relative fluorescence mCherry/BFP without ligand (log10 relative fluorescence); HEK293T overexpressing SLC46A1; higher = higher reporter protein expression; details: without (6R,S)-folinic acid; ligand present: no
Summary of the method: (§1)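 The ribozyme switch sat in an mCherry reporter, delivered by lentivirus into HEK293T libraries along with an EF1α-BFP marker. Enriched cells were incubated 48 h with or without ligand, sorted into 6 bins by mCherry/BFP, and bin genomic DNA was PCR-amplified, barcoded and MiSeq-sequenced. Fluorescence equals the fitted normal mean of the bin counts after normalization. Those log10(mCherry/BFP) means were scaled to five spiked-in control ribozymes.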

(6R,S)-folinic acid [2] = variants of: B1; assay: normalized RNA/DNA level without ligand (relative to sTRSVctl = 100) (log10 (% of sTRSVctl)); HEK293T overexpressing SLC46A1; higher = less ribozyme self-cleavage, higher mRNA level; details: without (6R,S)-folinic acid; ligand present: no
Summary of the method: (§2)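 Total RNA, extracted with EDTA 72 h after HEK293T cells were transfected with 4 µg per 6-well well of reporter-linked ribozyme switch library plasmids, was reverse-transcribed, amplified, barcoded and sequenced. Ligand, if used, was added 1 h before transfection. RNA level was derived from RNA reads divided by DNA reads and normalized to a spiked-in non-cleaving sequence or to the top sequences. This was multiplied by 100 and log10-transformed, with the top set of 25 sequences and a ≥100 DNA read minimum.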

(6R,S)-folinic acid [3] = variants of: B1; assay: FACS-Seq fitted mean relative fluorescence mCherry/BFP with ligand (log10 relative fluorescence); HEK293T overexpressing SLC46A1; ligand concentration (+) FACS-Seq: 6 mM; higher = higher reporter protein expression; details: with (6R,S)-folinic acid; ligand present: yes
Summary of the method: as §1

(6R,S)-folinic acid [4] = variants of: B1; assay: normalized RNA/DNA level with ligand (relative to sTRSVctl = 100) (log10 (% of sTRSVctl)); HEK293T overexpressing SLC46A1; ligand concentration (+) RNA-Seq: 6 mM; higher = less ribozyme self-cleavage, higher mRNA level; details: with (6R,S)-folinic acid; ligand present: yes
Summary of the method: as §2

Variant | FACS-Seq fitted mean (log10) ((6R,S)-folinic acid [1]) | normalized RNA/DNA level without ligand (log10) ((6R,S)-folinic acid [2]) | FACS-Seq fitted mean (log10) ((6R,S)-folinic acid [3]) | normalized RNA/DNA level with ligand (log10) ((6R,S)-folinic acid [4])
CUUGGC | 0.556 ± 0.084 | 2.062 ± 0.0022 | 0.651 ± 0.35 | 2.04 ± 0.037
CUUGGG | 0.49 ± 0.05 | 1.9697 ± 0.0016 | 0.119 ± 0.14 | 2.04 ± 0.03
CUUGGA | 0.658 ± 0.053 | 2.001 ± 0.019 | 0.547 ± 0.15 | 1.99 ± 0.025
UAAACC | – | 2.006 ± 0.0033 | – | 2.01 ± 0.043
UAAACU | – | 2.008 ± 0.013 | – | 2.02 ± 0.058
UAAACA | – | 1.96 ± 0.02 | – | 1.994 ± 0.016
AAAACC | – | 2.0338 ± 0.0018 | – | 2.02 ± 0.048
AUUGUG | 0.281 ± 0.041 | 1.8 ± 0.0029 | 0.524 ± 0.1 | 1.99 ± 0.035
CAAAUA | – | 1.95 ± 0.01 | – | 1.99 ± 0.025
CAAAUC | – | 2.05 ± 0.026 | – | 2.02 ± 0.047
CAAAUG | – | 2.007 ± 0.0091 | – | 2.007 ± 0.017
CAAAUU | – | 2.011 ± 0.0089 | – | 2.03 ± 0.027
UUUUUG | 0.145 ± 0.073 | 1.855 ± 0.016 | 0.176 ± 0.0085 | 2 ± 0.022
UAAAUC | – | 2.06 ± 0.0029 | – | 2.06 ± 0.045
UAAAUA | – | 1.952 ± 0.014 | – | 2 ± 0.034
UAAAUU | – | 1.984 ± 0.011 | – | 2.017 ± 0.02
UUUGCG | 0.0287 ± 0.045 | 1.867 ± 0.0062 | 0.0548 ± 0.11 | 1.98 ± 0.042
UUUGCU | 0.805 ± 0.017 | 2.043 ± 0.02 | 0.618 ± 0.24 | 2.01 ± 0.084
UUUGCA | 0.00421 ± 0.011 | 1.981 ± 0.0053 | -0.275 ± 0.0052 | 1.99 ± 0.032
UUUUAG | 0.393 ± 0.03 | 1.836 ± 0.0045 | 0.488 ± 0.26 | 1.97 ± 0.051
UUUUAC | 0.482 ± 0.098 | 1.975 ± 0.002 | 0.507 ± 0.18 | 1.97 ± 0.04

Variant | FACS-Seq fitted mean (log10) ((6R,S)-folinic acid [1]) | normalized RNA/DNA level without ligand (log10) ((6R,S)-folinic acid [2]) | FACS-Seq fitted mean (log10) ((6R,S)-folinic acid [3]) | normalized RNA/DNA level with ligand (log10) ((6R,S)-folinic acid [4])
GAACCA | – | 2.0209 ± 0.0019 | – | 2.01 ± 0.037
AUUGAA | 0.561 ± 0.054 | 1.97 ± 0.01 | 0.718 ± 0.079 | 2 ± 0.014
AUUGAG | 0.4944 ± 0.0016 | 1.715 ± 0.01 | 0.969 ± 0.14 | 1.946 ± 0.012
GAAAAA | – | 1.986 ± 0.0038 | – | 2.01 ± 0.038
GUUUGU | 0.326 ± 0.024 | 2.03 ± 0.034 | 0.672 ± 0.18 | 2.034 ± 0.014
UUUGAA | 0.0652 ± 0.029 | 1.918 ± 0.0086 | 0.135 ± 0.075 | 1.98 ± 0.042
UUUGAU | 0.135 ± 0.022 | 1.9541 ± 0.0016 | 0.206 ± 0.34 | 1.99 ± 0.065
UUUGAG | -0.104 ± 0.12 | 1.735 ± 0.0097 | 0.41 ± 0.25 | 1.98 ± 0.033
GUUGAG | 0.527 ± 0.087 | 1.89 ± 0.02 | 0.542 ± 0.36 | 2.028 ± 0.013
GUUGAA | 0.184 ± 0.013 | 1.95 ± 0.01 | 0.741 ± 0.0086 | 2.01 ± 0.035
GUUGAC | 0.276 ± 0.11 | 1.949 ± 0.018 | 0.451 ± 0.087 | 2.01 ± 0.028
GUUUAG | 0.516 ± 0.048 | 1.965 ± 0.0083 | 0.495 ± 0.068 | 2.02 ± 0.033
AUUUGG | 0.293 ± 0.04 | 1.88 ± 0.0039 | 0.37 ± 0.04 | 1.96 ± 0.023
GUUUUC | 0.421 ± 0.019 | 2.03 ± 0.021 | 0.346 ± 0.14 | 2 ± 0.028
GUUUUA | 0.327 ± 0.011 | 2 ± 0.0092 | 0.461 ± 0.024 | 2.02 ± 0.029
AUUGGA | 0.168 ± 0.094 | 1.941 ± 0.0048 | 0.119 ± 0.29 | 2.01 ± 0.038
CUUGAG | 0.41 ± 0.091 | 1.9276 ± 0.0002 | 0.534 ± 0.33 | 2.005 ± 0.0023
CUUGAU | 0.145 ± 0.1 | 1.97 ± 0.018 | 0.602 ± 0.33 | 2.008 ± 0.018
GAAAUU | – | 2.03 ± 0.0031 | – | 2.05 ± 0.025
GAAAUC | – | 2.044 ± 0.0097 | – | 2.027 ± 0.018
